Assay results published in US20140314780A1, “Compositions Using Antibodies Directed to GPNMB and Uses Thereof” (Celldex Therapeutics, Inc., priority 2008, published 2014).
“Also recorded” adds a separate entry of the source. Each block holds one molecule with its values, some of them ahead of it.

What was measured:
[1] = test system: GPNMB surface expression on WM2664 melanoma cells; test: Flow cytometry of GPNMB surface expression, WM2664 cells; assay type: cell-based, human; details: for GPNMB surface expression, flow cytometry GeoMean: WM2664, CR011 (anti-GPNMB) primary antibody; for GPNMB surface expression: melanoma cells (WM2664), 48 hours (Table 37, bottom right)
Protocol: The following day, cells were treated as indicated in the figures/legends, harvested with versene (Invitrogen), washed with PBS and incubated with primary antibody (10 μg/mL) diluted in staining buffer (PBS pH 7.4, 4% FBS, 0.1% sodium azide) for 30 minutes on ice. […] After incubation with primary antibody, samples were washed with staining buffer and then incubated with secondary antibody (PE-conjugated anti-human antibody; 1:100) for 30 minutes on ice. After incubation, samples were washed with staining buffer and examined on a Becton Dickinson FACSCalibur flow cytometer (BD Immunocytometry Systems, San Jose, Calif.). Data analysis was performed with Becton Dickinson Cell Quest software and the geometric mean fluorescence intensity (GeoMean) was determined for each sample.
For the data shown in Table 37, flow cytometry was performed on intact, non-permeabilized cells using the indicated primary monoclonal antibodies. The CR011 antibody utilized was not MMAE-conjugated, but is the same antibody used to generate CR011-vcMMAE. The results are reported as GeoMeans. For the data shown in the top panel of Table 37, A375 (melanoma) or SF539 (glioblastoma) cells were treated with the indicated concentrations of MEKi (U0126), RAFKi (553013) or ERKi (FR180204) for 12, 24 or 48 hours prior to analysis. For the data shown in the bottom left panel of Table 37, SKMEL2 (melanoma) cells were treated with MEKi (U0126; 10 uM), imatinib (20 uM), p38i (p38 MAPKi SB202190; 50 uM), NH4Cl (ammonium chloride; 20 mM) or CLQ (chloroquine; 20 uM) for 48 hours prior to analysis. For the data shown in the bottom right panel of Table 37, WM2664 (melanoma) cells were treated with MON (monensin) or MMPi (GM6001) for 48 hours prior to analysis.

[2] = test system: shed GPNMB; test: GPNMB shedding: immunoblotting of conditioned media (supernatants); assay type: cell-based, human; details: conditioned media of WM2664, UACC62; 48 hours (FIG. 7A, 7B)
Excerpt: Shedding of membrane proteins is a common phenomenon that may affect ADC activity. To investigate potential GPNMB shedding, conditioned media collected from melanoma cell lines was immunoblotted for GPNMB (FIG. 7A). […] Shed GPNMB was also readily detected in conditioned media harvested from several other melanoma and glioblastoma cell lines examined, although a very low level of shed GPNMB was found in conditioned media harvested from A375 melanoma cells, a finding which is consistent with the low basal level of GPNMB expression by these cells.

[3] = test system: GPNMB; test: Immunoblotting for GPNMB on whole-cell lysates of cancer cell lines after drug exposure; assay type: cell-based, human; details: whole-cell lysates, 48 hours (FIG. 7)
Excerpt: Cancer cell lines were of human origin and were obtained from the American Type Culture Collection (Manassas, Va.) and from the National Cancer Institute (Bethesda, Md.) and cultured in RPMI-1640 supplemented with 10% FBS (growth media). Sources of reagents were as follows: RAFKi (553013), MEKi (U0126), MEKi (PD98059), MEKi (444939), ERKi (FR180204), p38 MAPKi (SB202190), p38 MAPKi (SB203580), aurora kinase inhibitor (189404), JNK inhibitor (420119), MMPi (GM6001) were from EMD Chemicals (San Diego, Calif.). ERKi (A6355), RAFKi: (GW5074), ammonium chloride (NH4Cl), chloroquine, monensin, cyclohexamide and emetine were from Sigma (Saint Louis, Mo.). HSP90i (geldanamycin) was from AG Scientific (San Diego, Calif.) and imatinib (Gleevec) was purchased from a pharmacy.
Cells were seeded in 6-well tissue culture dishes at a subconfluent density and allowed to attach overnight. For harvesting cell lysates, media was removed, cells were briefly washed with serum-free media and then 1× Tris-glycine SDS sample buffer (Invitrogen, Carlsbad, Calif.) supplemented with 10 mM dithiothreitol (Sigma) was added directly to the wells. Cell lysates were then collected and boiled for 10 minutes. For preparing conditioned media, drug treatments were performed in a minimum volume of growth media (1.5 mL/well). Following 48 hours of incubation, conditioned media was collected, briefly microfuged, mixed with an equal volume of 2× Tris-glycine SDS sample buffer (Invitrogen, Carlsbad, Calif.) supplemented with 20 mM dithiothreitol (Sigma) and boiled for 10 minutes. For cell lysates, samples were quantified and an equal quantity of protein/lane was resolved on 4-20% gradient polyacrylamide gels (Invitrogen) and then transferred to nitrocellulose filters (Invitrogen). The volume of conditioned media loaded/lane was adjusted based on the protein concentration determined in the respective cell lysates. Immunoblotting was performed using standard procedures and the following primary antibodies: MARTI (sc-20032), TYRP2 (sc-25544), TYRP1 (sc-25543), PMEL17 (sc-15010), MAGEA1 (sc-20033), MCSP (sc-20162), MTf (sc-26651), MCAM (sc-18942), pp-ERK (sc-7976) and ERK (sc-94) (preceding antibodies were purchased from Santa Cruz Biotechnologies, Santa Cruz, Calif.), GPNMB (AF2550; R & D Systems, Minneapolis Minn.), actin (A5060; Sigma). Following incubation with the appropriate horseradish peroxidase-conjugated secondary antibodies, enhanced chemiluminescence (GE Healthcare, Chalfont St. Giles, United Kingdom) was used for detection.

[4] = molecular target: T1, GPNMB (Homo sapiens, UniProt Q14956); test: Epitope binning of anti-GPNMB antibodies (competitive binding)
T1 construct: V5His; made in house
T1 sequence (Q14956 23-492): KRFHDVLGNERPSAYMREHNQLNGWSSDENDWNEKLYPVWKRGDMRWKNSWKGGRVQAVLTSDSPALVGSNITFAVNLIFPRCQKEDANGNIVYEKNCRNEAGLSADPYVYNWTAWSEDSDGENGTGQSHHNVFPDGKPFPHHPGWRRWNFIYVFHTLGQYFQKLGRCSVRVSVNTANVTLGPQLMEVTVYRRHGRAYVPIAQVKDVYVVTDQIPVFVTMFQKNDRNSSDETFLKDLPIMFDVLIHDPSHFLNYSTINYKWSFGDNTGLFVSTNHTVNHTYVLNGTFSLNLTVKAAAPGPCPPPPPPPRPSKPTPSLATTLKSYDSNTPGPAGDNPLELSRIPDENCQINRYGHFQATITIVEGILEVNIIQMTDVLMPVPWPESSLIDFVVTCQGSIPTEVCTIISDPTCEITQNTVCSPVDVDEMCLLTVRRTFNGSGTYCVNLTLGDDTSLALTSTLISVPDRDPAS
Excerpt: Certain antibodies, described herein were binned in accordance with the protocol described in U.S. Patent Application Publication No. 20030157730. […] Competitive binding by antibodies from […] supports antibody specificity for similar or adjacent epitopes. Non competitive binding supports antibody specificity for unique epitopes.
Three bins were created to further test the binding of six anti-GPNMB antibodies. Bin 1 included GPNMB antibodies (1.2.1), (1.10.1), and (2.22.1). Bin 2 included GPNMB antibodies (2.3.1) and (1.15.1), and Bin 3 included GPNMB antibody (2.10.1). The results of the binning assays are provided below in Tables 4 and 5.

[5] = test system: CG56972 expressing cells; test: Effect of naked mAb on CG56972 expressing cells in vitro; assay type: cell-based; details: naked IgG2 mAb
Excerpt: (§1) Fully human monoclonal antibodies (mAb)-IgG2 to CG56972/GPNMB, an antigen predominantly found on the surface of melanoma and brain tumor cells, were generated. […] Thus it was examined whether isotype switching from an IgG2 to an IgG1 might enable the mAb to kill human melanoma cells through ADCC effector functions.

[6] = test system: CG56972 expressing cells; test: Effect of naked mAb on CG56972 expressing cells in vivo; details: naked IgG2 mAb
Excerpt: as §1

[7] = test system: shed GPNMB; test: Immunoprecipitation of shed GPNMB; assay type: binding, human

Molecule: CNC(=O)[C@H](Cc1c[nH]c2ccccc12)NC(=O)[C@@H](CC(=O)NO)CC(C)C [GM6001]
GPNMB surface expression, flow cytometry GeoMean ([1]; MMPi 25 uM): 55.9
GPNMB surface expression, flow cytometry GeoMean ([1]; MMPi 50 uM): 68.9
GPNMB surface expression, flow cytometry GeoMean ([1]; MMPi 100 uM): 66.8
GPNMB surface expression [1]: increased GPNMB surface expression
GPNMB shedding [2]: decreased or eliminated

Molecule: CC[C@@]1([C@@H]2O[C@@H]([C@H]3O[C@@](O)(CO)[C@H](C)C[C@@H]3C)C[C@@H]2C)CC[C@H]([C@]2(C)CC[C@]3(C[C@H](O)[C@@H](C)[C@@H]([C@@H](C)[C@@H](OC)[C@H](C)C(=O)O)O3)O2)O1 [monensin]
faster migrating ~110 kDa GPNMB species [3]: increased the expression
slowest migrating cell-associated ~130 kDa GPNMB species [3]: decreased or eliminated
GPNMB surface expression, flow cytometry GeoMean ([1]; MON 250 nM): 88.9
GPNMB surface expression, flow cytometry GeoMean ([1]; MON 500 nM): 86.8
GPNMB surface expression [1]: increased GPNMB surface expression
GPNMB shedding [2]: decreased or eliminated; also recorded: strong inhibition

epitope bin ([4]; Table 4): VIII
binning assay signal (antibody pair matrix) ([4]; Table 4, paired with column BB): −19
binning assay signal (antibody pair matrix) ([4]; Table 4, paired with column antibody 1.1): 91
binning assay signal (antibody pair matrix) ([4]; Table 4, paired with column antibody 1.11): 10
binning assay signal (antibody pair matrix) ([4]; Table 4, paired with column antibody 1.12): 15
binning assay signal (antibody pair matrix) ([4]; Table 4, paired with column antibody 1.13): 13
binning assay signal (antibody pair matrix) ([4]; Table 4, paired with column antibody 1.15): 0
binning assay signal (antibody pair matrix) ([4]; Table 4, paired with column antibody 1.2): 79
binning assay signal (antibody pair matrix) ([4]; Table 4, paired with column antibody 1.3): 71
binning assay signal (antibody pair matrix) ([4]; Table 4, paired with column antibody 1.5): 15
binning assay signal (antibody pair matrix) ([4]; Table 4, paired with column antibody 1.7): 21
binning assay signal (antibody pair matrix) ([4]; Table 4, paired with column antibody 1.8): 8
binning assay signal (antibody pair matrix) ([4]; Table 4, paired with column antibody 1.9): 12
binning assay signal (antibody pair matrix) ([4]; Table 4, paired with column xV5): 89
epitope bin ([4]; Table 5, Cut-off = 90): VIII
binning assay signal (antibody pair matrix) ([4]; Table 5, paired with column BB): 59
binning assay signal (antibody pair matrix) ([4]; Table 5, paired with column antibody 1.1): 127
binning assay signal (antibody pair matrix) ([4]; Table 5, paired with column antibody 1.11): 19
binning assay signal (antibody pair matrix) ([4]; Table 5, paired with column antibody 1.12): 21
binning assay signal (antibody pair matrix) ([4]; Table 5, paired with column antibody 1.13): 5
binning assay signal (antibody pair matrix) ([4]; Table 5, paired with column antibody 1.15): 0
binning assay signal (antibody pair matrix) ([4]; Table 5, paired with column antibody 1.2): 90
binning assay signal (antibody pair matrix) ([4]; Table 5, paired with column antibody 1.3): 51
binning assay signal (antibody pair matrix) ([4]; Table 5, paired with column antibody 1.5): −9
binning assay signal (antibody pair matrix) ([4]; Table 5, paired with column antibody 1.7): 17
binning assay signal (antibody pair matrix) ([4]; Table 5, paired with column antibody 1.8): 12
binning assay signal (antibody pair matrix) ([4]; Table 5, paired with column antibody 1.9): 19
binning assay signal (antibody pair matrix) ([4]; Table 5, paired with column xV5): 125
epitope bin ([4]; six anti-GPNMB antibodies, three bins): Bin 2
Molecule: CR011: fully human monoclonal antibody that specifically binds to GPNMB; VH SEQ ID NO: 20, VL SEQ ID NO: 29
effect on CG56972 expressing cells [5]: no effect
effect on CG56972 expressing cells [6]: no effect
recognition of shed GPNMB [7]: recognize shed GPNMB
